Test results as given in patent US20230140224A1 (APRILBIO, published 2023).

Target: T1, human serum albumin (human, UniProt P02768 25-609)
T1 construct: also called HSA; human albumin
Assay: ELISA, albumin coated on plate, Fab in solution

T1 sequence (P02768 25-609 limits assumed): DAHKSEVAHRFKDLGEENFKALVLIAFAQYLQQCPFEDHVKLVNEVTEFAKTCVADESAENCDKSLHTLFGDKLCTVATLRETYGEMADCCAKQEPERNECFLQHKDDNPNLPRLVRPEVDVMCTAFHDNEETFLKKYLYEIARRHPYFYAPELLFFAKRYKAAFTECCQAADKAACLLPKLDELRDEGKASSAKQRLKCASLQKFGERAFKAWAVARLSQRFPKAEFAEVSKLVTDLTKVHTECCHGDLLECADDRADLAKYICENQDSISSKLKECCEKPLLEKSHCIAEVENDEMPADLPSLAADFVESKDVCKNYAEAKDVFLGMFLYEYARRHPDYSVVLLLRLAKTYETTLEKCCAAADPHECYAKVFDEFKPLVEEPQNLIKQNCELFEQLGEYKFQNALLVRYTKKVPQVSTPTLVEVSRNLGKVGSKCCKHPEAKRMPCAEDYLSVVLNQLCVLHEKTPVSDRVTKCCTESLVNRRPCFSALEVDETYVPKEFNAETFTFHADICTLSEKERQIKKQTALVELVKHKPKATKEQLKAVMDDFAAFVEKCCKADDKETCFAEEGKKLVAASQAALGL

B1: FL335 Fab antibody fragment (Fab, V domains shown)
VH: QVQLVQSGGGPVKPGGSLRLSCAASGFMFRAYSMNWVRQAPGKGLEWVSSISSSGRYIHYADSVKGRFTISRDNAKNSLYLQMNSLRAEDTAVYYCARETVMAGKALDYWGQGTLVTVSS
VL: DIVLTQSPGTLSLSPGETATLSCRASQSVGSNLAWYQQKPGQAPRLLIYGASTGATGVPARFSGSRSGTDFTLTITSLQPEDFATYYCQQYYSFLAKTFGQGTQLEIKR
notes: also called FL355 Fab antibody fragment; feline chimeric antibody fragment
binding result: binds
